B1: library; numbered along this chain (parent)
chain: MRKPRAAVGSGHRKQAASQEGRQKHAKNNSQAKPSACDGLARQPEEVVLQASVSSYHLFRDVAEVTAFRGSLLSWYDQEKRDLPWRRRAEDEMDLDRRAYAVWVSEVMLQQTQVATVINYYTGWMQKWPTLQDLASASLEEVNQLWAGLGYYSRGRRLQEGARKVVEELGGHMPRTAETLQQLLPGVGRYTAGAIASIAFGQATGVVDGNVARVLCRVRAIGADPSSTLVSQQLWGLAQQLVDPARPGDFNQAAMELGATVCTPQRPLCSQCPVESLCRARQRVEQEQLLASGSLSGSPDVEECAPNTGQCHLCLPPSEPWDQTLGVVNFPRKASRKPPREESSATCVLEQPGALGAQILLVQRPNSGLLAGLWEFPSVTWEPSEQLQRKALLQELQRWAGPLPATHLRHLGEVVHTFSHIKLTYQVYGLALEGQTPVTTVPPGARWLTQEEFHTAAVSTAMKKVFRVYQGQQPGTCMGSKRSQVSSPCSRKKPRMGQQVLDNFFRSHISTDAHSLNSAAQ

Variants of: B1
Assay: 8OG:A repair function score (normalized; synonymous = 0, nonsense = -1) (normalized log-likelihood score); higher = more repair activity (WT-like)
Details: with 8OG:A DNA repair reporter (GFP) in HEK-293 MUTYH KO cells
Experimental: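 Saturation mutagenesis (NNN codon scan) of the MUTYH cDNA (521-aa nuclear isoform NM_001048174.1 / NP_001041639), stably expressed under doxycycline induction in HEK-293 MUTYH knockout cells. Cells were co-transfected with an 8OG:A-bearing GFP repair reporter plus mCherry and sorted 72 h later into GFP+ and GFP− bins, three replicates per tile. The Rosace log2 enrichment (GFP+ vs GFP−) was converted per tile to a normalized function score with synonymous variants centered at 0 and nonsense variants (codons 1-471) at -1; low-abundance variants were removed.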

Variant | 8OG:A repair function score
S490N | 0.0157
I359T | 0.0861
T511I | -0.0251
A253I | -1.02
L355N | 0.0266
A147H | -0.241
L184F | -0.304
V107T | -0.0133
V107I | 0.0887
V107W | -0.894
L257W | -0.968
R409D | -0.0632
A291Q | 0.00288
P377H | -1.31
P377F | -1.17
V62G | 0.0052
R332P | -0.191
R332D | -0.574
Q271M | -0.0166
P443D | -0.00467
G479Q | 0.0264
L360P | -1.26
L516K | 0.00908
L516I | 0.0106

Variant | 8OG:A repair function score
T324W | -0.0525
L313R | -0.425
R154A | -0.88
R81I | -0.704
K463H | -0.12
I221K | -0.986
I221A | -0.993
S518G | 0.0246
W447M | -0.801
L501S | 0.0215
E285V | 0.00347
E285P | -0.129
Q144G | -0.106
Q252L | -0.863
Q252H | -0.873
S294W | -0.0117
G368V | -0.27
R246C | -0.646
R97S | -0.0417
V414Q | -0.321
P383F | -0.202
Y152C | -0.782
V485K | -0.00358
V485I | 0.0128

Variant | 8OG:A repair function score
V485F | 0.0143
V485W | -0.0552
P365C | 0.0287
E303I | -0.101
S227K | 0.0372
P273M | -1.05
D91Q | -0.103
D94Y | -0.33
D243P | -0.554
I421M | -0.139
A99Q | -2.46
A99R | -1.8
A238I | -0.365
L396W | -0.581
A196H | -0.673
T424H | -0.235
T424Q | -0.355
T424F | -0.0268
Q50V | -0.0513
G236T | -0.0456
A519N | -0.00616
A519F | 0.0212
S52I | -0.0155
C304T | -0.454

Variant | 8OG:A repair function score
H508W | 0.018
H508N | -0.00695
S507W | -0.0429
M125T | -0.339
G209Q | -0.48
G209Y | -0.757
L277Y | 0.014
C269P | -1.04
N366C | -0.137
K493H | 0.0281
K493P | 0.0123
S419E | -0.583
V242G | -0.916
V242Y | -0.964
L72I | -0.0959
Q181H | -0.175
A199Y | -1.05
A199L | -1.01
A461I | -0.152
Q113I | -0.279
M496H | 0.0281
D512L | -0.0115
P264D | -0.274
S515P | -0.0381

Variant | 8OG:A repair function score
S515V | 0.00837
L448N | -0.42
T130Y | -0.392
K492I | 0.0148
K492G | -0.00555
E92N | -0.0998
T191C | -0.351
P174C | -0.583
Q499V | 0.0113
L145I | -0.102
P402L | -0.318
S510R | 0.00127
S318K | -0.0665
T228W | -0.106
A135F | -0.316
A63K | -0.00172
Q282C | -0.0445
Q282R | -0.0175
Q282S | -0.0408
A41I | 0.0909
V500R | 0.00797
V500F | -0.0131
R398L | -0.263
H57C | -0.642

Variant | 8OG:A repair function score
H57Q | -0.657
K337A | -0.0726
K337E | -0.0878
K337W | -0.0779
M173T | -0.402
V47Y | -0.0242
S231D | -0.132
S231W | 0.173
E256R | -0.814
T260Q | -0.0253
Y100A | -1.95
Y100H | -1.01
V104P | -1.01
P34L | 0.131
A431C | -0.0248
A431T | -0.0229
V438I | -0.407
Q498W | 0.0137
V441I | -0.0341
V441P | -0.0374
V441T | -0.0387
E141Y | -0.924
Y428P | -1.18
E413H | 0.00964

Variant | 8OG:A repair function score
E413A | -0.0523
E413I | 0.00451
D224F | -0.955
D224K | -0.928
G70F | -0.115
T455Y | -0.209
E275W | -0.0767
E275K | 0.00478
I509L | 0.00266
I509G | -0.00592
P84V | -0.206
A51Y | 0.00468
Q202N | -0.274
A220Y | -0.75
G258R | -1.2
G401T | -0.428
P244I | -0.574
T380G | 0.0924
F418H | -0.4
L58D | -0.00786
P320L | -0.0348
R163S | -0.122
T116W | -0.0903
M478D | -0.0222

Variant | 8OG:A repair function score
M478C | 0.0262
M478N | -0.0119
F466G | -0.584
N210A | -0.876
L325M | -0.0835
R69Y | -0.421
F59L | -0.095
Q43S | -0.0281
Q43P | 0.054
S487R | 0.0273
C272Y | -0.982
C272H | -1.32
G475H | -0.0609
W146K | -0.739
E375R | -0.462
R482G | 0.0105
Q239I | -0.589
W399C | 0.313
E395K | -0.345
R189E | -0.385
A137C | -0.261
A137K | -0.626
P338I | -0.0572
P442N | -0.426

Variant | 8OG:A repair function score
P442I | -0.0279
V468D | -0.647
E341L | -0.00796
V301S | -0.344
S226V | -0.247
R2D | -0.112
R217S | -1.03
G293F | -0.0692
G293C | -0.0307
Q397G | -0.363
L289A | 0.00592
L289P | -0.0119
L134K | -0.914
T436Q | 0.0306
D82E | -0.035
D82N | 0.00375
L131W | -1.21
L131R | -0.798
R495Y | -0.0924
F330Q | -0.638
L432I | -0.208
L369P | 0.0626
T122I | 0.0511
P299I | -0.00528

Variant | 8OG:A repair function score
Q521F | -0.0187
H416S | -0.0543
Q484V | -0.0109
E45P | -0.0802
E45V | -0.122
L49F | -0.0825
Q126P | -0.376
T406V | 0.013
T406P | -0.287
A89H | 0.00693
Q310N | 0.00143
Q310K | -0.0227
E433P | 0.219
V465F | -0.73
M93S | -0.0236
N307H | -0.0535
L73Q | -0.236
S197P | -1.3
S197G | -0.747
S197D | -1.04
L392E | -1.11
L392Q | -0.839
A354S | -0.0885
A334E | -0.0264

Variant | 8OG:A repair function score
A334S | 0.0289
E178R | 0.0879
Q159H | 0.0232
W381E | 0.244
G497Y | -0.0861
V207M | -0.495
S480H | 0.0192
E168Q | 0.0147
A457E | -0.495
L408K | -0.858
T449W | -0.634
T449G | -0.132
E302F | -0.253
V206T | -0.338
E385H | -0.135
C262F | -1.14
C262Y | -1.21
A203D | -0.191
A203S | -0.0724
K333G | -0.131
L229P | -0.112
P488C | -0.0233
L180N | -1.02
A6D | -0.15

Variant | 8OG:A repair function score
A194V | -0.443
H407L | -0.0178
H407Y | -0.269
H407I | 0.0779
P44C | -0.247
P44M | -0.107
Q363T | -0.255
Q232V | -0.243
G201W | -0.353
G201M | -0.244
I198S | -0.757
Y190I | -0.823
Y190S | -0.22
Y190G | -0.381
L83K | -0.987
Y76N | -1.1
Y76R | -1.37
H312D | -0.0268
P247T | -0.856
Q358N | -0.131
G39R | 0.0558
S74C | -0.0037
Q473Y | -0.023
Q473T | -0.00244

Variant | 8OG:A repair function score
Q473W | 0.0181
Q473E | -0.021
H514P | -0.00868
H410Y | 0.174
E287V | -0.04
A391R | -0.136
A391T | -0.42
L349E | -0.993
L349W | -0.668
V458F | -0.4
V458I | -0.0811
D300H | -0.0192
R467H | -0.0349
P331M | -0.254
P331N | -0.316
Q111K | -0.553
A192K | -1.07
A192P | -1.17
L158C | -0.573
E319Q | 0.0567
W374I | -0.729
W374C | -0.633
Y56T | -0.011
K164P | -1.12

Variant | 8OG:A repair function score
E90H | -0.0294
V165R | -1.07
L361K | -0.984
V117G | -0.408
G356Q | 0.00571
G356R | -0.153
G356F | -0.253
G356M | -0.207
W235S | -0.516
W235M | -0.389
E350A | -0.188
E350N | -0.112
F504R | -0.00117
F504H | 0.0204
W128T | -0.721
W128P | -1.23
R98T | -0.164
R98Q | -0.236
R98H | -0.232
E46V | 0.0528
E46M | -0.119
R60K | -0.0179

Reference: the supplement of paper PMC11908140
